The assay has as its target BSA (Bos taurus (Bovine), UniProt P02769). Nature of the assay: co-sedimentation (ultracentrifugation pelleting, immunoblot), BSA in place of microtubules as negative control. (In general: A western blot detects proteins with antibodies after separation by electrophoresis.)

Chain of BSA (P02769 25-607): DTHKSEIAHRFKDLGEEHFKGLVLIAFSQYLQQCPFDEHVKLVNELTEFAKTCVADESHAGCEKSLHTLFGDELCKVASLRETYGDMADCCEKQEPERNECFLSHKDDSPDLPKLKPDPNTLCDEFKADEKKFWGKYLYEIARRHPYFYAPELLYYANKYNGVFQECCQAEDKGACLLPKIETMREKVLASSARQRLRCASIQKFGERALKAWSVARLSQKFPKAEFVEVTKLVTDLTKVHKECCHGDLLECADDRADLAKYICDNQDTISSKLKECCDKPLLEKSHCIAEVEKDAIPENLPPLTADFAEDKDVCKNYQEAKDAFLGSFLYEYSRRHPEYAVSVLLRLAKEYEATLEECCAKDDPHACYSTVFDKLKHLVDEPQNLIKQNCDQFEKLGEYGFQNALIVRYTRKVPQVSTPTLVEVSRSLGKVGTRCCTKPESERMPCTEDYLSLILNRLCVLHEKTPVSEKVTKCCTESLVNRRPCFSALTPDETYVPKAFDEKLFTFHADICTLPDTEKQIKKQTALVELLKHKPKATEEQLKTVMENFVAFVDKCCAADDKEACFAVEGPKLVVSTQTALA

B1: His GST BAR-PH (aa 1-388) of ARHGAP10, WT (protein)
chain: MGLQPLEFSDCYLDSPWFRERIRAHEAELERTNKFIKELIKDGKNLIAATKSLSVAQRKFAHSLRDFKFEFIGDAVTDDERCIDASLREFSNFLKNLEEQREIMALSVTETLIKPLEKFRKEQLGAVKEEKKKFDKETEKNYSLIDKHLNLSAKKKDSHLQEADIQVEQNRQHFYELSLEYVCKLQEIQERKKFEFVEPMLSFFQGMFTFYHQGHELAKDFNHYKMELQINIQNTRNRFEGTRSEVEELMNKIRQNPKDHKRASQFTAEGYLYVQEKRPAPFGSSWVKHYCMYRKAAKKFNMIPFEHRSGGKLGDGEVFFLKECTKRHTDSIDRRFCFDIEAADRPGVSLTMQAFSEEERKQWLEALGGKEALSHSFNTAIIPRPEGN
For B1, the binding result was “no binding”.
